The values that follow come from patent publication US20260258127A1 (YING MAI DE MEDICAL TECHNOLOGY GUANGDONG, published 2026).

The chains are these.
B1: anti-CD3 antibody mutant VH-M34C conjugated with Molecule I (+20K) (antibody, V domains shown)
VH: EVQLVESGGGLVQPGGSLRLSCAASGFTFSTYACNWVRQAPGKGLEWVGRIRSKYNNYATYYADSVKDRFTISRDDSKNSLYLQMNSLKTEDTAVYYCARHGNFGNSYVSWFAYWGQGTLVTVSS
VL: QTVVTQEPSLTVSPGGTVTLTCRSSTGAVTTSNYANWVQQKPGQAPRGLIGGTNKRAPGVPARFSGSLLGDKAALTLLGAQPEDEAEYFCALWYSNLWVFGGGTKLTVL
modifications: Cys 34 conjugated with Molecule I (+20K)
notes: also called VH-34 M34 (+20K)
B2: anti-CD3 antibody mutant VH-F112C conjugated with Molecule I (+20K) (antibody, V domains shown)
VH: EVQLVESGGGLVQPGGSLRLSCAASGFTFSTYAMNWVRQAPGKGLEWVGRIRSKYNNYATYYADSVKDRFTISRDDSKNSLYLQMNSLKTEDTAVYYCARHGNFGNSYVSWCAYWGQGTLVTVSS
VL: QTVVTQEPSLTVSPGGTVTLTCRSSTGAVTTSNYANWVQQKPGQAPRGLIGGTNKRAPGVPARFSGSLLGDKAALTLLGAQPEDEAEYFCALWYSNLWVFGGGTKLTVL
modifications: Cys 112 conjugated with Molecule I (+20K)
notes: also called VH-112 F112 (+20K)
B3: anti-CD3 antibody mutant VH-F104C conjugated with Molecule I (+20K) (antibody, V domains shown)
VH: EVQLVESGGGLVQPGGSLRLSCAASGFTFSTYAMNWVRQAPGKGLEWVGRIRSKYNNYATYYADSVKDRFTISRDDSKNSLYLQMNSLKTEDTAVYYCARHGNCGNSYVSWFAYWGQGTLVTVSS
VL: QTVVTQEPSLTVSPGGTVTLTCRSSTGAVTTSNYANWVQQKPGQAPRGLIGGTNKRAPGVPARFSGSLLGDKAALTLLGAQPEDEAEYFCALWYSNLWVFGGGTKLTVL
modifications: Cys 104 conjugated with Molecule I (+20K)
notes: also called VH-104 F104 (+20K)
B4: anti-CD3 antibody mutant VH-D68C conjugated with Molecule I (+20K) (antibody, V domains shown)
VH: EVQLVESGGGLVQPGGSLRLSCAASGFTFSTYAMNWVRQAPGKGLEWVGRIRSKYNNYATYYADSVKCRFTISRDDSKNSLYLQMNSLKTEDTAVYYCARHGNFGNSYVSWFAYWGQGTLVTVSS
VL: QTVVTQEPSLTVSPGGTVTLTCRSSTGAVTTSNYANWVQQKPGQAPRGLIGGTNKRAPGVPARFSGSLLGDKAALTLLGAQPEDEAEYFCALWYSNLWVFGGGTKLTVL
modifications: Cys 68 conjugated with Molecule I (+20K)
notes: also called VH-68 D68 (+20K)
B5: anti-CD3 antibody mutant VH-Y61C (antibody, V domains shown)
VH: EVQLVESGGGLVQPGGSLRLSCAASGFTFSTYAMNWVRQAPGKGLEWVGRIRSKYNNYATCYADSVKDRFTISRDDSKNSLYLQMNSLKTEDTAVYYCARHGNFGNSYVSWFAYWGQGTLVTVSS
VL: QTVVTQEPSLTVSPGGTVTLTCRSSTGAVTTSNYANWVQQKPGQAPRGLIGGTNKRAPGVPARFSGSLLGDKAALTLLGAQPEDEAEYFCALWYSNLWVFGGGTKLTVL
notes: Cys point mutant of the humanized anti-CD3 antibody; also called VH-61
B6: anti-CD3 antibody mutant VL-Y94C (antibody, V domains shown)
VH: EVQLVESGGGLVQPGGSLRLSCAASGFTFSTYAMNWVRQAPGKGLEWVGRIRSKYNNYATYYADSVKDRFTISRDDSKNSLYLQMNSLKTEDTAVYYCARHGNFGNSYVSWFAYWGQGTLVTVSS
VL: QTVVTQEPSLTVSPGGTVTLTCRSSTGAVTTSNYANWVQQKPGQAPRGLIGGTNKRAPGVPARFSGSLLGDKAALTLLGAQPEDEAEYFCALWCSNLWVFGGGTKLTVL
notes: Cys point mutant of the humanized anti-CD3 antibody; also called VL-94
B7: anti-CD3 antibody mutant VL-K55C (antibody, V domains shown)
VH: EVQLVESGGGLVQPGGSLRLSCAASGFTFSTYAMNWVRQAPGKGLEWVGRIRSKYNNYATYYADSVKDRFTISRDDSKNSLYLQMNSLKTEDTAVYYCARHGNFGNSYVSWFAYWGQGTLVTVSS
VL: QTVVTQEPSLTVSPGGTVTLTCRSSTGAVTTSNYANWVQQKPGQAPRGLIGGTNCRAPGVPARFSGSLLGDKAALTLLGAQPEDEAEYFCALWYSNLWVFGGGTKLTVL
notes: Cys point mutant of the humanized anti-CD3 antibody; also called VL-55
B8: anti-CD3 antibody mutant VL-R56C (antibody, V domains shown)
VH: EVQLVESGGGLVQPGGSLRLSCAASGFTFSTYAMNWVRQAPGKGLEWVGRIRSKYNNYATYYADSVKDRFTISRDDSKNSLYLQMNSLKTEDTAVYYCARHGNFGNSYVSWFAYWGQGTLVTVSS
VL: QTVVTQEPSLTVSPGGTVTLTCRSSTGAVTTSNYANWVQQKPGQAPRGLIGGTNKCAPGVPARFSGSLLGDKAALTLLGAQPEDEAEYFCALWYSNLWVFGGGTKLTVL
notes: Cys point mutant of the humanized anti-CD3 antibody; also called VL-56
B9: anti-CD3 antibody mutant VH-F112C (antibody, V domains shown)
VH: EVQLVESGGGLVQPGGSLRLSCAASGFTFSTYAMNWVRQAPGKGLEWVGRIRSKYNNYATYYADSVKDRFTISRDDSKNSLYLQMNSLKTEDTAVYYCARHGNFGNSYVSWCAYWGQGTLVTVSS
VL: QTVVTQEPSLTVSPGGTVTLTCRSSTGAVTTSNYANWVQQKPGQAPRGLIGGTNKRAPGVPARFSGSLLGDKAALTLLGAQPEDEAEYFCALWYSNLWVFGGGTKLTVL
notes: Cys point mutant of the humanized anti-CD3 antibody; also called VH-112
B10: anti-CD3 antibody mutant VH-S53C (antibody, V domains shown)
VH: EVQLVESGGGLVQPGGSLRLSCAASGFTFSTYAMNWVRQAPGKGLEWVGRIRCKYNNYATYYADSVKDRFTISRDDSKNSLYLQMNSLKTEDTAVYYCARHGNFGNSYVSWFAYWGQGTLVTVSS
VL: QTVVTQEPSLTVSPGGTVTLTCRSSTGAVTTSNYANWVQQKPGQAPRGLIGGTNKRAPGVPARFSGSLLGDKAALTLLGAQPEDEAEYFCALWYSNLWVFGGGTKLTVL
notes: Cys point mutant of the humanized anti-CD3 antibody; also called VH-53
B11: anti-CD3 antibody mutant VH-F104C (antibody, V domains shown)
VH: EVQLVESGGGLVQPGGSLRLSCAASGFTFSTYAMNWVRQAPGKGLEWVGRIRSKYNNYATYYADSVKDRFTISRDDSKNSLYLQMNSLKTEDTAVYYCARHGNCGNSYVSWFAYWGQGTLVTVSS
VL: QTVVTQEPSLTVSPGGTVTLTCRSSTGAVTTSNYANWVQQKPGQAPRGLIGGTNKRAPGVPARFSGSLLGDKAALTLLGAQPEDEAEYFCALWYSNLWVFGGGTKLTVL
notes: Cys point mutant of the humanized anti-CD3 antibody; also called VH-104
B12: anti-CD3 antibody mutant VH-D68C (antibody, V domains shown)
VH: EVQLVESGGGLVQPGGSLRLSCAASGFTFSTYAMNWVRQAPGKGLEWVGRIRSKYNNYATYYADSVKCRFTISRDDSKNSLYLQMNSLKTEDTAVYYCARHGNFGNSYVSWFAYWGQGTLVTVSS
VL: QTVVTQEPSLTVSPGGTVTLTCRSSTGAVTTSNYANWVQQKPGQAPRGLIGGTNKRAPGVPARFSGSLLGDKAALTLLGAQPEDEAEYFCALWYSNLWVFGGGTKLTVL
notes: Cys point mutant of the humanized anti-CD3 antibody; also called VH-68
B13: anti-CD3 antibody mutant VL-Y34C (antibody, V domains shown)
VH: EVQLVESGGGLVQPGGSLRLSCAASGFTFSTYAMNWVRQAPGKGLEWVGRIRSKYNNYATYYADSVKDRFTISRDDSKNSLYLQMNSLKTEDTAVYYCARHGNFGNSYVSWFAYWGQGTLVTVSS
VL: QTVVTQEPSLTVSPGGTVTLTCRSSTGAVTTSNCANWVQQKPGQAPRGLIGGTNKRAPGVPARFSGSLLGDKAALTLLGAQPEDEAEYFCALWYSNLWVFGGGTKLTVL
notes: Cys point mutant of the humanized anti-CD3 antibody; also called VL-34
B14: anti-CD3 antibody mutant VH-W111C (antibody, V domains shown)
VH: EVQLVESGGGLVQPGGSLRLSCAASGFTFSTYAMNWVRQAPGKGLEWVGRIRSKYNNYATYYADSVKDRFTISRDDSKNSLYLQMNSLKTEDTAVYYCARHGNFGNSYVSCFAYWGQGTLVTVSS
VL: QTVVTQEPSLTVSPGGTVTLTCRSSTGAVTTSNYANWVQQKPGQAPRGLIGGTNKRAPGVPARFSGSLLGDKAALTLLGAQPEDEAEYFCALWYSNLWVFGGGTKLTVL
notes: Cys point mutant of the humanized anti-CD3 antibody; also called VH-111
B15: anti-CD3 antibody mutant VH-M34C (antibody, V domains shown)
VH: EVQLVESGGGLVQPGGSLRLSCAASGFTFSTYACNWVRQAPGKGLEWVGRIRSKYNNYATYYADSVKDRFTISRDDSKNSLYLQMNSLKTEDTAVYYCARHGNFGNSYVSWFAYWGQGTLVTVSS
VL: QTVVTQEPSLTVSPGGTVTLTCRSSTGAVTTSNYANWVQQKPGQAPRGLIGGTNKRAPGVPARFSGSLLGDKAALTLLGAQPEDEAEYFCALWYSNLWVFGGGTKLTVL
notes: Cys point mutant of the humanized anti-CD3 antibody; also called VH-34
B16: anti-CD3 antibody mutant VL-W93C (antibody, V domains shown)
VH: EVQLVESGGGLVQPGGSLRLSCAASGFTFSTYAMNWVRQAPGKGLEWVGRIRSKYNNYATYYADSVKDRFTISRDDSKNSLYLQMNSLKTEDTAVYYCARHGNFGNSYVSWFAYWGQGTLVTVSS
VL: QTVVTQEPSLTVSPGGTVTLTCRSSTGAVTTSNYANWVQQKPGQAPRGLIGGTNKRAPGVPARFSGSLLGDKAALTLLGAQPEDEAEYFCALCYSNLWVFGGGTKLTVL
notes: Cys point mutant of the humanized anti-CD3 antibody; also called VL-93
B17: anti-CD3 antibody mutant VL-N54C (antibody, V domains shown)
VH: EVQLVESGGGLVQPGGSLRLSCAASGFTFSTYAMNWVRQAPGKGLEWVGRIRSKYNNYATYYADSVKDRFTISRDDSKNSLYLQMNSLKTEDTAVYYCARHGNFGNSYVSWFAYWGQGTLVTVSS
VL: QTVVTQEPSLTVSPGGTVTLTCRSSTGAVTTSNYANWVQQKPGQAPRGLIGGTCKRAPGVPARFSGSLLGDKAALTLLGAQPEDEAEYFCALWYSNLWVFGGGTKLTVL
notes: Cys point mutant of the humanized anti-CD3 antibody; also called VL-54
B18: anti-CD3 antibody mutant VL-N96C (antibody, V domains shown)
VH: EVQLVESGGGLVQPGGSLRLSCAASGFTFSTYAMNWVRQAPGKGLEWVGRIRSKYNNYATYYADSVKDRFTISRDDSKNSLYLQMNSLKTEDTAVYYCARHGNFGNSYVSWFAYWGQGTLVTVSS
VL: QTVVTQEPSLTVSPGGTVTLTCRSSTGAVTTSNYANWVQQKPGQAPRGLIGGTNKRAPGVPARFSGSLLGDKAALTLLGAQPEDEAEYFCALWYSCLWVFGGGTKLTVL
notes: Cys point mutant of the humanized anti-CD3 antibody; also called VL-96

For one experiment, the target named is T1, CD3 (antigen of the anti-CD3 antibody, coated in the ELISA of Examples 1-3) (Homo sapiens (Human), UniProt P07766 23-126).
T1 construct: also called antibody antigen
T1 sequence (P07766 23-126 limits assumed, form in doubt): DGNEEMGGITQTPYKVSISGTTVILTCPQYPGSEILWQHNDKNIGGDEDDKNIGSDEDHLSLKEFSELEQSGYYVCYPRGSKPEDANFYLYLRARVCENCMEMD
Nature of the experiment: binding activity of the conjugated mutant compared with the wild-type antibody (ELISA as in Example 1). The protocol: (§1) In the present invention, the activity of each mutant with a point mutation compared to that of its initial antibody is detected by ELISA. Specifically, the 96-well plates were coated with antibody antigen overnight, then blocked with 1% BSA blocking agent (Thermo Fisher) at 37° C. for 2 hours, and washed with PBST for 3 times. The corresponding antibody or the corresponding mutant was added for binding at 37° C. for 1 hour, and then washed with PBST for 3 times. HRP enzyme-linked anti-human IgG was added for binding at 37° C. for 1 hour, and washed with PBST for 3 times. TMB substrate (Solarbio., Inc.) was used to detect absorbance at 450 nm. The effect on mutant binding strength was calculated through EC50 mutation/EC50 wild-type.
Background: An ELISA detects its analyte on a solid surface through an enzyme-linked reagent.
B1: the “Blocking fold after conjugation (+20K)” value stood at 5 fold.

For the molecule B2, the “Blocking fold after conjugation (+20K)” value was 4 fold. For B3, the “Blocking fold after conjugation (+20K)” value was determined as 13 fold. Turning to B4, the “Blocking fold after conjugation (+20K)” value amounted to 4 fold.

The target in another experiment is T1, CD3 (antigen of the anti-CD3 antibody, …). As to the kind of experiment: ELISA, coated antigen, anti-human IgG-HRP; reference wild-type antibody. The protocol:
as §1
According to the above method, the binding activity of anti-CD3 antibody SP34 mutant with mutations at different position shown in Table 1 was detected.
On to B5, for which the “Binding strength of mutants (EC50 mutant/EC50 wild-type)” value (“Binding strength of mutants” for short) came out at 5.1 fold. The same measure, in the same setting: the same measure for B6: 1 fold. On the same count and under the same terms, the same measure for B7: 0.9 fold; for B8: 1.5 fold.

Regarding B9, the “Binding strength of mutants” value turned out to be 1.2 fold. The same measure, in the same setting: the figure for B10 is 1.2 fold. Same read-out and setting: the same measure for B11: 1 fold; for B12: 2 fold. With B13, the “Binding strength of mutants” value came out at 1.2 fold. With B14, the “Binding strength of mutants” value is 2 fold.

Consider B15, for which the “Binding strength of mutants” value is 1.1 fold.

Consider B16, for which the “Binding strength of mutants” value was 1.8 fold. As for B17, the “Binding strength of mutants” value amounted to 1 fold. Turning to B18, the “Binding strength of mutants” value turned out to be 1 fold.
